Measurements published in paper PMC9652321, “Structural basis of human SNAPc recognizing proximal sequence element of snRNA promoter”.
Numbering of substitutions follows the chain as printed.

Key:
[1] = biological target: T1, mSNAPc#2 5Mu Y389A;R445A;R151A;K194A;W350A (Homo sapiens) (UniProt Q5SXM2+Q92966+Q16533+O75971); experiment: SPR; conditions: EMSA: 100 mM KCl, 25 mM HEPES-K pH 7.6, 12.5 mM MgCl2, 10 uM ZnCl2, 0.1 mM EDTA, 10% glycerol, 3 mM DTT, 0.5 mM PMSF, 50 nM DNA, RT 30 min; SPR: 100 mM KCl, 12.
T1 sequence 1: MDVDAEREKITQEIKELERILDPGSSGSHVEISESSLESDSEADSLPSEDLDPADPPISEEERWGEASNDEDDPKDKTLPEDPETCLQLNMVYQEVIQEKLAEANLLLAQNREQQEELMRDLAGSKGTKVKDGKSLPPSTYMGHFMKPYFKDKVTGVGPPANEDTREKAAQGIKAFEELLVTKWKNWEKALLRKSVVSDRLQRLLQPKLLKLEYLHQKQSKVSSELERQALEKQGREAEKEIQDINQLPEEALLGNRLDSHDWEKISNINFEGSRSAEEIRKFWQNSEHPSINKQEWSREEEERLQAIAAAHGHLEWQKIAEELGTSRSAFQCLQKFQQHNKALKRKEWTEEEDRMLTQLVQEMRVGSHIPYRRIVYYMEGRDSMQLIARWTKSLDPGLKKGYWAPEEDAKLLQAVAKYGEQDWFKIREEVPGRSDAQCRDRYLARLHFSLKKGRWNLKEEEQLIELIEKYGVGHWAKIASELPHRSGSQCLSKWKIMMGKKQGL
T1 sequence 2: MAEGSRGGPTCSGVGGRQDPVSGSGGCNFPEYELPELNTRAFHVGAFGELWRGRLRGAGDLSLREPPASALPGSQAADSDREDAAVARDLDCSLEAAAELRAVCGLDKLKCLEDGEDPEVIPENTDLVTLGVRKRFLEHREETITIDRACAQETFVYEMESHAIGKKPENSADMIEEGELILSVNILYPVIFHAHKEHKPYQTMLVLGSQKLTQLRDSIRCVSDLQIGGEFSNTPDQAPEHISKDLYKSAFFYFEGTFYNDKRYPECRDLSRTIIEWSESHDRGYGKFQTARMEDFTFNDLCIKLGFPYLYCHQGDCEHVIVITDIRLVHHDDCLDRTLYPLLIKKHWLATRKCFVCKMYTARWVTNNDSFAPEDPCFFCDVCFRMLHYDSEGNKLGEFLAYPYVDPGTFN
T1 sequence 3: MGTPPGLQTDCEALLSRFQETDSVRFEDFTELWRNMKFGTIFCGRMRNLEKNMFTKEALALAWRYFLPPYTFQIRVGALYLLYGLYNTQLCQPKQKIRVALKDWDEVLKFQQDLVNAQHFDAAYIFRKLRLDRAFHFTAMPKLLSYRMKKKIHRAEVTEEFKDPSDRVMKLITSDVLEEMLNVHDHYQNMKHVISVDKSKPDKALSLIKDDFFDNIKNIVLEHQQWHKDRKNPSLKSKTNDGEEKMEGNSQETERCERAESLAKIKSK
T1 sequence 4: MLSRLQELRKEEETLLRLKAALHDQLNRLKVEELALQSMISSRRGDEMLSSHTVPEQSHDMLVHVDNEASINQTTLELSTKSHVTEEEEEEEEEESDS

[2] = biological target: T2, mSNAPc#2 4Mu Y389A;R445A;R151A;W350A (Homo sapiens) (UniProt Q5SXM2+Q92966+Q16533+O75971); experiment: SPR; conditions: EMSA: 100 mM KCl, 25 mM HEPES-K pH 7.6, 12.5 mM MgCl2, 10 uM ZnCl2, 0.1 mM EDTA, 10% glycerol, 3 mM DTT, 0.5 mM PMSF, 50 nM DNA, RT 30 min; SPR: 100 mM KCl, 12.
T2 sequence 1: T1 sequence 1
T2 sequence 2: T1 sequence 2 with A194K
T2 sequence 3: T1 sequence 3
T2 sequence 4: T1 sequence 4

[3] = biological target: T3, mSNAPc#2 WT (Homo sapiens, UniProt Q5SXM2;Q92966;Q16533;O75971 1-505;1-411;1-268;1-98); experiment: EMSA; 200 and 1000 nM protein; EMSA: 100 mM KCl, 25 mM HEPES-K pH 7.6, 12.5 mM MgCl2, 10 uM ZnCl2, 0.1 mM EDTA, 10% glycerol, 3 mM DTT, 0.5 mM PMSF, 50 nM DNA, RT 30 min; SPR: 100 mM KCl, 12.5 mM MgCl2, 10 uM ZnCl2, 0.1 mM EDTA, 0.05% P20, 25 C; conditions: protein: recombinant; tags: FLAG N-term SNAP190; 6xHis N-term SNAP43; copies: 1;1;1;1; label: 5'-FAM
T3 sequence 1: T1 sequence 1 with A389Y, A445R
T3 sequence 2: T1 sequence 2 with A151R, A194K, A350W
T3 sequence 3: T1 sequence 3
T3 sequence 4: T1 sequence 4

[4] = biological target: T4, mSNAPc#11 (rod module) (Homo sapiens, UniProt Q5SXM2;Q16533;O75971 1-143;148-268;1-98); experiment: EMSA; 200 and 800 nM protein; EMSA: 100 mM KCl, 25 mM HEPES-K pH 7.6, 12.5 mM MgCl2, 10 uM ZnCl2, 0.1 mM EDTA, 10% glycerol, 3 mM DTT, 0.5 mM PMSF, 50 nM DNA, RT 30 min; SPR: 100 mM KCl, 12.5 mM MgCl2, 10 uM ZnCl2, 0.1 mM EDTA, 0.05% P20, 25 C; conditions: protein: recombinant; tags: Strep SNAP19; MBP SNAP190; MBP N-term SNAP43; copies: 1;1;1; label: 5'-FAM on positive strand (EMSA)
T4 sequence 1: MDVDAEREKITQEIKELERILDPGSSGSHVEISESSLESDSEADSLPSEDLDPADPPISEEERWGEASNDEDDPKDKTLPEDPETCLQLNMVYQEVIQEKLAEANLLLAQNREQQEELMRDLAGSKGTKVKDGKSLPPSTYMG
T4 sequence 2: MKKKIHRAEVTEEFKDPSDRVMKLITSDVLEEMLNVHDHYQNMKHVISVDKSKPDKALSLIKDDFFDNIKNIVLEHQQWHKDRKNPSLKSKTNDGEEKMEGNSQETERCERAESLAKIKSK
T4 sequence 3: T1 sequence 4

Molecule: TGCTTACCGTAACTTGAAAGTATTT (double strand) [25 bp hU6-1 PSE (SPR)]
- Kd [1]: 49 µM
- Kd [2]: 8.91 µM

B1: PSE 8Sub (dsDNA)
DNA 1: TGCTTACATGAACTTCCCATCATTT
DNA 2: AAATGATGGGAAGTTCATGTAAGCA
- binding result [3]: no binding

B2: 25 bp hU6-1 PSE (dsDNA)
DNA 1: TGCTTACCGTAACTTGAAAGTATTT
DNA 2: AAATACTTTCAAGTTACGGTAAGCA
- binding result [4]: no binding

B3: PSE 6Sub (dsDNA)
DNA 1: TGCTTACCTGAACTTGCCATCATTT
DNA 2: AAATGATGGCAAGTTCAGGTAAGCA
- binding result [3]: no binding
